The values that follow come from the RNAGym collection of RNA variant scans (doi:10.7554/elife.90254).

To fix the notation:
B1: LINE1-full (parent)
chain: UACGUAGGUGGUUUUCCCCUGAUAGUGCUAAGGGGGCCUGGAAGUUUGGACUGGGCAGAGCUCAACACAGCGUGGCAAAGUGGCUGUGGCUAGACUGCCUCUCUGGAUUCCUCGUCACUCAGCAGGGCAUCUCUGAGAGAAAUGCC

Variants of B1 are the subject of this data set. The data set can be described thus: self-cleavage, relative activity (ratio to wild type); higher = more cleavage; in vitro, sequencing; the parent is a self-cleaving ribozyme.
On to A92G U112C, for which the self-cleavage came out at 0.13.
The figure for A92G U112A is 0.09.
On to U96G U104A, for which the self-cleavage was found to be 0.05.
In the case of A94G A107U, the self-cleavage was 0.3.
The value for U96A A121U was 0.05; that for A94G C116U was 0.28.
With A94G C128U, the self-cleavage stood at 0.22.
The value for A92G U108C was 1.11.
As for A92U G114U, the self-cleavage turned out to be 0.67.
Consider A94U A140U, for which the self-cleavage came to 0.26.
The value for U96C U108A was 0.09; that for A94G C146U was 0.47; that for C99U U112A was 1.12.
As for C99U U112C, the self-cleavage is 0.36.
U96C U143C: the self-cleavage was 0.14.
For U96A C110U, the self-cleavage turned out to be 0.08.
The figure for G93A A141U is 0.04; for C98U A121U it is 0.38.
The value for C98U A121G was 0.44; that for A92U G127A was 0.39.
The value for C95U A117G was 0.14.
With A94U U115A, the self-cleavage is 0.31.
The value for A94U U115C was 0.45; that for A94C U115A was 0.1; that for U96G U132C was 0.16.
For A94G U115A, the self-cleavage was 0.34.
Regarding A94G U115C, the self-cleavage came to 0.45.
The figure for A92U U104C is 0.96; for A94G C99U it is 0.19.
With U96A U119A, the self-cleavage turned out to be 0.09.
In the case of U96A U119C, the self-cleavage worked out at 0.11.
The value for U100A U102C was 1.7; that for U100A U102A was 0.49.
The figure for U96C A124U is 0.14.
The figure for U100A A142G is 0.77.
As for C95A A129G, the self-cleavage was found to be 0.09.
The value for C95U G135A was 0.17; that for G97A A121G was 0.05; that for U96C A138U was 0.1.
The figure for C98A U102C is 0.13.
Regarding A92U U119A, the self-cleavage was found to be 0.72.
The figure for C95A C146U is 0.08; for A94G A141G it is 0.25.
The figure for A94U C101U is 0.31; for G97A A142C it is 0.14.
Regarding G97A A142G, the self-cleavage is 0.02.
With A94U U143A, the self-cleavage came out at 0.21.
The value for A94U U143C was 0.24; that for G97A A136G was 0.19.
Turning to A94U A136U, the self-cleavage was 0.29.
For the variant C95A U102C, the self-cleavage amounted to 0.11.
In the case of U96A G135A, the self-cleavage came to 0.03.
As to U100A U132C, the self-cleavage was determined as 0.65.
Consider A92G U134A, for which the self-cleavage amounted to 0.
The value for A94C U134C was 0.09; that for G97U A140G was 0.07.
Regarding U100A U134A, the self-cleavage is 1.02.
The figure for A92U C128U is 0.47; for A94U C120G it is 0.3; for C95A A136U it is 0.05.
The figure for G93U A141U is 0.02; for G93U A141G it is 0.03.
In the case of G93A A121U, the self-cleavage was determined as 0.06.
With U96C G126A, the self-cleavage came to 0.15.
The figure for A92G G144A is 0.09.
The figure for A94G A136G is 0.34.
With U96A A138U, the self-cleavage amounted to 0.1.
C98U U112C: the self-cleavage stood at 0.26.
The figure for A94G G114A is 0.23; for U96C U119G it is 0.13.
As to A94G A138C, the self-cleavage was 0.22.
Regarding A94G A138U, the self-cleavage turned out to be 0.36.
The value for U96C A136U was 0.15.
The value for U96C A136C was 0.
U96C A136G: the self-cleavage turned out to be 0.15.
In the case of C99U U119A, the self-cleavage worked out at 0.79.
Turning to C99U U119C, the self-cleavage was 0.96.
Regarding C99A A136G, the self-cleavage was found to be 0.99.
The value for U96G A142G was 0.17; that for C99U C145U was 0.82; that for A94U U102A was 0.33.
With C95A U104C, the self-cleavage is 0.08.
Consider C98U C146U, for which the self-cleavage worked out at 0.32.
For the variant G93U U108C, the self-cleavage stood at 0.05.
Turning to A94G U130A, the self-cleavage came out at 0.34.
The figure for A94G U130C is 0.36; for G93A C101A it is 0.04; for C95A U115C it is 0.11.
The value for U96A U100C was 0.08; that for A94G C95A was 0.07; that for C95U A138U was 0.2.
The value for A92U U102A was 0.79; that for A92U U102C was 0.3; that for A94C A129G was 0.
For C95U U100C, the self-cleavage was determined as 0.59.
As to A92U G139A, the self-cleavage was found to be 0.76.
In the case of U100C A129U, the self-cleavage came to 1.92.
Take U96C G137U: the self-cleavage stood at 0.06.
The figure for G97C U102C is 0.14; for U96A G122C it is 0.07.
As to U96A C128U, the self-cleavage stood at 0.07.
The value for G97C U108A was 0.14.
The value for U96A A124G was 0.06; that for A94G U112C was 0.13.
In the case of A94U U119C, the self-cleavage turned out to be 0.28.
The value for A92G U102C was 0.11; that for A94G U109C was 0.07; that for A94G U109A was 0.39.
Turning to A94G C145U, the self-cleavage came out at 0.17.
The figure for G93A U119A is 0.03.
The figure for G93A U119C is 0.04; for G97U U104A it is 0.02.
The value for C95A A138G was 0.09; that for U96C U132A was 0.11.
Take U96C U132C: the self-cleavage amounted to 0.11.
In the case of U100A A124G, the self-cleavage came out at 1.02.
With U96C G135A, the self-cleavage came out at 0.24.
With U96G U108G, the self-cleavage worked out at 0.16.
As to U96G U108C, the self-cleavage was determined as 0.13.
The figure for U100A A129G is 1.49; for U100A A129U it is 1.25.
The value for G97A U112A was 0.16.
G93A A94G: the self-cleavage was 0.09.
The figure for U100C C103U is 1.65.
Consider U100C C103A, for which the self-cleavage turned out to be 0.85.
In the case of U96G A117C, the self-cleavage came to 0.
The figure for C95U U108C is 0.42.
In the case of A92U G106U, the self-cleavage was determined as 0.62.
For A92U A138G, the self-cleavage is 0.75.
The value for A92U A138U was 0.53; that for C95U A129G was 0.19.
Regarding U96C C111U, the self-cleavage stood at 0.12.
Consider C98U G105C, for which the self-cleavage is 0.75.
The value for U96G G137A was 0.08.
The value for U100A C146G was 1.26; that for A92G C131G was 0.22.
On to A92G G126A, for which the self-cleavage came to 0.13.
Consider G97A U109A, for which the self-cleavage came out at 0.07.
G97A U109C: the self-cleavage came out at 0.05.
For A92G U100C, the self-cleavage is 0.14.
The value for U96A U134A was 0.08; that for G93A U115C was 0.04.
On to U96C U130C, for which the self-cleavage is 0.24.
As for A94G U102A, the self-cleavage came to 0.27.
As to A94U A141G, the self-cleavage is 0.37.
The figure for A94U A141U is 0.42; for U96C A140U it is 0.14.
Regarding U100A U104A, the self-cleavage was 1.51.
Take U100A U104C: the self-cleavage came out at 1.68.
The figure for U96C A117U is 0.1; for U96C A117G it is 0.2; for U96A C113U it is 0.06.
The value for A94G U132C was 0.34.
The value for C95U U132C was 0.21.
C95G U104C: the self-cleavage is 0.02.
The value for G97U U108C was 0.06; that for C98G U112C was 0.12.
The figure for U100A U115C is 1.22; for C95U A107G it is 0.21; for U96A C116A it is 0.21.
In the case of C95U U102C, the self-cleavage came out at 0.14.
The figure for G97A C111U is 0.07; for G97A U143C it is 0.16; for U96A U115A it is 0.08.
With U96A U115C, the self-cleavage turned out to be 0.05.
As for A94G U143C, the self-cleavage is 0.43.
The figure for G93A A138G is 0.06.
